# In publication PMC6765112, “Specificity of MYB interactions relies on motifs in ordered and disordered contexts” (Nucleic Acids Research, 2019):
# Like-named read-outs stand apart in the source and are kept apart here. Ends that are not written are not given here. * marks the point of attachment. Biotin = O=C1N[C@H]2[C@H](CS[C@H]2CCCCC(=O)*)N1
# T1: MYC4 N-terminal domain (L55-N253) (Arabidopsis thaliana, UniProt O49687 55-253)
# T1 chain: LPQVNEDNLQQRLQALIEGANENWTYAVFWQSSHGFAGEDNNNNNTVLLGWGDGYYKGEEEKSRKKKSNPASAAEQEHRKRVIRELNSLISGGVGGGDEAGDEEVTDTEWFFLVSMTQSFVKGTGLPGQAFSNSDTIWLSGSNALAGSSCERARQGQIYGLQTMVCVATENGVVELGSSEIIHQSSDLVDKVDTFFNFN
# T2: L190V-MIM peptide (F180-G201 of MYB29, L190V) (Arabidopsis thaliana, UniProt Q9FLR1 180-201, L190V, biotin on the N-terminus)
# T2 construct: MYB29, Arabidopsis thaliana, 22 residues F180-G201; source: synthetic peptide (TAG Copenhagen A/S)
# T2 peptide (looked up): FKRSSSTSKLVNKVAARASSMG
# B1: MYC4 N-terminal domain (L55-N253) (domain or fragment, Arabidopsis thaliana, UniProt O49687 55-253, looked up)
# chain: LPQVNEDNLQQRLQALIEGANENWTYAVFWQSSHGFAGEDNNNNNTVLLGWGDGYYKGEEEKSRKKKSNPASAAEQEHRKRVIRELNSLISGGVGGGDEAGDEEVTDTEWFFLVSMTQSFVKGTGLPGQAFSNSDTIWLSGSNALAGSSCERARQGQIYGLQTMVCVATENGVVELGSSEIIHQSSDLVDKVDTFFNFN
# notes: MYC4, Arabidopsis thaliana, N-terminal domain with the JID, residues L55-N253 (AA55-253); recombinant protein of 22.7 kDa; expressed from pET52u; source: E. coli BL21(DE3), purified (HisTrap HP IMAC, dialysed to PBS pH 7.4 with 1 mM DTT); not shown: 6xHis, C-terminal, kept
# Assays:
# [1] = target: T1, MYC4 N-terminal domain (L55-N253); test: BLI
# [2] = target: B1; test: BLI; biotinylated peptide (1 μM) immobilised on streptavidin biosensors; MYC4Nt 130 to 0.1 μM; PBS pH 7.4, 1 mM DTT, 0.05% bovine serum albumin; BLItz; equilibrium responses fitted to a Hill equation; details: both partners purified
# [3] = target: T2, L190V-MIM peptide (F180-G201 of MYB29, …); test: as above; details: both partners purified
# GL3 [4] = test: Split-ubiquitin assay, GL3 as bait; format: cell-based, Arabidopsis thaliana; details: yeast, SD-AHLW growth
# Procedure: The rapamycin-compatible yeast strain NMY51 TOR1-1 Δfpr1 ([35]) was transformed according to DUALhunter™ kit instructions (Dualsystems biotech). Briefly, overnight 2×YPAD cultures were diluted to OD600 = 0.2, and incubated at 30°C, 150 RPM for 4–6 h in 2×YPAD, before harvesting the cells by centrifugation at 700 g for 5 min. The cells were washed with H2O, then 0.1 M LiOAc, before resuspending in 0.1 M LiOAc with 15% glycerol. The competent cells were then aliquoted and stored at −80°C until transformation. For double transformation with bait and prey plasmids, competent cells were thawed on ice, and mixed with transformation mix (240 μl 50% PEG-3350, 35 μl 1 M LiOAc and 25 μl 2 mg/ml ssDNA per transformation) and 200 ng of each plasmid, before being exposed to a 42°C heat shock in a water bath for 45 min. The cells were then chilled on ice for a few minutes, sedimented by centrifugation (3000 g, 1 min), resuspended in sterile H2O, plated on SD-LW plates and grown at 30°C for 2–3 days.
# For drop tests, cells from three individual colonies of each bait/prey combination were grown overnight in liquid SD-LW media. Next day, culture densities were normalized to OD600 = 0.05, dilution series (OD600 = 0.05, OD600 = 0.005, OD600 = 0.0005 and OD600 = 0.00005) were spotted on square plates (SD-LW, SD-AHLW and SD-AHLW+Rapa) and grown for 2 days at 30°C before taking pictures.
# To identify interaction sites mediating specific MYB–MYC complex formation, we selected two TFs from each family. These were MYB28 and MYB29 from MYB subgroup 12, and two of their partner bHLH TFs, MYC3 and MYC4. To define the region mediating the interactions we applied a chemically inducible dimerization split-ubiquitin system ([35]). […] This is used as an in-built positive control for correct expression and functionality of the prey fusion protein and thereby reduces the incidence of false negatives.
# GL3 [5] = details: ref [32]; cited from earlier work
# From the text: To identify interaction sites mediating specific MYB–MYC complex formation, we selected two TFs from each family. These were MYB28 and MYB29 from MYB subgroup 12, and two of their partner bHLH TFs, MYC3 and MYC4. To define the region mediating the interactions we applied a chemically inducible dimerization split-ubiquitin system ([35]). […] As controls, we included the interaction between GL3 and MYB75, where a fragment c ...
molecule,measurement,setting,value
"Biotin-FKRSSSTSKLLNKVAARASSMG (peptide, UniProt Q9FLR1 180-201, looked up, source: synthetic peptide (TAG Copenhagen A/S)) [WT-MIM peptide (F180-G201 of MYB29)]",Kd,[1],1900 nM
same,Kd,[2],2700 ± 800 nM
B1,fold weaker affinity than the WT-MIM peptide,[3],~10 fold
"non-MYB region of MYB75: non-MYB region of MYB75 (residues K110-D248) (protein, left off: NubG and FRB (from the vector pFRB), end not stated, kept) KKHEPCCKIKMKKRDITPIPTTPALKNNVYKPRPRSFTVNNDCNHLNAPPKVDVNPPCLGLNINNVCDNSIIYNKDKKKDQLVNNLIDGDNMWLEKFLEESQEVDILVPEATTTEKGDTLAFDVDQLWSLFDGETVKFD",interaction with GL3 (in words),GL3 [4],does not
same,interaction with GL3 (in words),GL3 [5],unable to interact
